Results reported in US9879306B2, “Luciferase biosensors for cAMP” (PROMEGA CORPORATION, priority 2008, dated 2018).

Key:
dopamine D2 receptor = molecular target: T1, dopamine D2 receptor (Homo sapiens, UniProt P14416); assay: Forskolin, dopamine and haloperidol responses of biosensor clones in HEK293 cells stably expressing the dopamine D2 receptor; format: cell-based; conditions: for Dopamine Induced: 3 μM FSK + 0.3 μM dopamine; for Dopamine Induced / Forskolin (FSK) Induced / Forskolin (FSK) Uninduced: 10 minutes; for Forskolin (FSK) Induced: 3 μM FSK; for Halo Induced: 10 μM Haloperidol pre-treatment, then 3 μM FSK + 0.3 μM dopamine; for Dopamine Response: RLU agonist-treated / forskolin-treated; for Forskolin (FSK) Response: RLU forskolin-treated / untreated; for Halo Response: RLU haloperidol then FSK + dopamine / FSK + dopamine alone; for Forskolin (FSK) Uninduced: untreated (media alone)
T1 construct: expressed in transfected cells
Description: To measure changes in the intracellular concentration of cAMP, HEK293 cells are transiently transfected with mutant cAMP biosensors followed by treatment with compounds known to increase or decrease the intracellular cAMP concentration through GPCR activation of Gs- or Gi-coupled receptors, respectively.
HEK293 cells stably expressing the dopamine D2 receptor were transiently transfected with the mutant cAMP biosensors from Example VIIB. Cells were also transfected with either 7A1 (Example III) or GS358 (parent biosensor) as controls. Cells were equilibrated for 2 hours at room temperature using 2 mM EF-luc. Antagonist assay wells were pre-treated for 10-15 minutes at room temperature with 10 μM Haloperidol (Halo). Next, the following reagents were added to their respective wells: media alone to “untreated” samples; 3 μM forskolin (FSK) to “forskolin-treated” samples; 3 μM FSK+0.3 μM dopamine to “agonist-treated” samples; and 3 μM FSK+0.3 μM dopamine to the aforementioned wells pre-treated with Halo. The cells were then incubated at room temperature for 10 minutes and luminescence was measured. Fold response for FSK was calculated by dividing the RLU from “forskolin-treated” cells by the RLU from the “untreated” cells. Fold response for dopamine treatment was calculated by dividing the RLU from the “agonist-treated” cells by the RLU from the “forskolin-treated” cells. Fold response for Haloperidol treatment was calculated by dividing the RLU from the cells treated with haloperidol then forskolin plus dopamine by the RLU of cells treated with forskolin plus dopamine alone.

HEK293 cells = assay: Luminescence and fold response of biosensor clones in HEK293 cells after isoproterenol or FSK; format: cell-based; conditions: for Isoproterenol-5 minutes Induced / Isoproterenol-5 minutes Resp: 5 minutes after isoproterenol; for Forskolin (FSK) Induced / Forskolin (FSK) Resp: 15 minutes after FSK; for Isoproterenol-15 minutes Induced / Isoproterenol-15 minutes Resp: 15 minutes after isoproterenol; for Isoproterenol-5 minutes Resp / Forskolin (FSK) Resp / Isoproterenol-15 minutes Resp: RLU induced / RLU uninduced; for Isoproterenol-5 minutes Uninduced / Forskolin (FSK) Uninduced / Isoproterenol-15 minutes Uninduced: uninduced cells; for Forskolin (FSK) Uninduced / Isoproterenol-15 minutes Uninduced: 15 minutes
Method: B. HEK293 cells were transiently transfected with plasmid DNAs encoding various biosensor mutants as above. These biosensor mutants contained the E284A and V316I mutation in the RIIbetaB cAMP binding domain and the modified linker sequence 7A1 (GSNWDSGCSREG; SEQ ID NO: 129). The clones also contained the additional mutations outlined in Table 5. Cells were equilibrated for 2 hours at room temperature with 2 mM EF-Luc. Luminescence was measured 5 and 15 minutes after addition of the isoproterenol and 15 minutes after addition of FSK. Fold response (response; Resp.) was calculated by dividing relative light units (RLUs) from induced cells by the RLUs from uninduced cells. As a control, the biosensor GS358 and 7A1 were included.

T1 sequence (P14416 whole entry, species assumed): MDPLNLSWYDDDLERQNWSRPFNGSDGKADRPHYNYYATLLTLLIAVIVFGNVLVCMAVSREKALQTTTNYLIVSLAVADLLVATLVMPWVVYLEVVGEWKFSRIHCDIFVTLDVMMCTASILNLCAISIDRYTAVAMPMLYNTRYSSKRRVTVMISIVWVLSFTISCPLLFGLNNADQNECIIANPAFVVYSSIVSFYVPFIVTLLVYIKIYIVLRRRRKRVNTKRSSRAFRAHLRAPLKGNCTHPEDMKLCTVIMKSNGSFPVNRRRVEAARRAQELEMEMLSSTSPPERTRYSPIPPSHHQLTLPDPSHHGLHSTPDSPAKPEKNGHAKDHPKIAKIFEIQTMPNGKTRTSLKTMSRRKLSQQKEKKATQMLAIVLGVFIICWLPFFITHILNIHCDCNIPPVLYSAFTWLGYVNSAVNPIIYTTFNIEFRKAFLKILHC

B1: 15H6: 7A1 biosensor with F433Y, M493V in Luc2.0 and modified linker …; SEQ ID NO:107, 108 (protein)
chain: MPGAVGKVVPFFEAKVVDLDTGKTLGVNQRGELCVRGPMIMSGYVNNPEATNALIDKDGWLHSGDIAYWDEDEHFYIVDRLKSLIKYKGYQVAPAELESILLQHPNIFDAGVAGLPDDDAGELPAAVVVLEHGKTVTEKEIVDYVASQVTTAKKLRGGVVFVDEVPKGLTGKLDARKIREILIKAKKGSNWDSGCSRECMYESFIESLPFLKSLEFSARLKVVDVIGTKVYNDGEQIIAQGDSADSFFIIESGEVKITMKRKGKSEVEENGAVEIARCSRGQYFGELALVTNKPRAASAHAIGTVKCLAMDVQAFERLLGPCMEIMKRNIATYEEQLVALFGTNMDIVAKNIKKGPAPFYPLEDGTAGEQLHKAMKRYALVPGTIAFTDAHIEVDITYAEYFEMSVRLAEAMKRYGLNTNHRIVVCSENSLQFFMPVLGALFIGVAVAPANDIYNERELLNSMGISQPTVVFVSKKGLQKILNVQKKLPIIQKIIIMDSKTDYQGFQSMYTFVTSHLPPGFNEYDFVPESFDRDKTIALIMNSSGSTGLPKGVALPHRTACVRFSHARDPIFGNQIIPDTAILSVVPFHHGFGMFTTLGYLICGFRVVLMYRFEEELFLRSLQDYKIQSALLVPTLFSFFAKSTLIDKYDLSNLHEIASGGAPLSKEVGEAVAKRFHLPGIRQGYGLTETTSAILITPEGV
notes: 7A1 biosensor with F433Y, M493V in Luc2.0 and modified linker …
In the case of B1, the “Dopamine Induced” value (dopamine D2 receptor) is reported as 30 RLU, the “Forskolin (FSK) Induced” value (dopamine D2 receptor) is reported as 7177 RLU and the “Halo Induced” value (dopamine D2 receptor) is reported as 65 RLU. For the same molecule, the “Dopamine Response” value (dopamine D2 receptor) was 0.56 fold, the “Forskolin (FSK) Response” value (dopamine D2 receptor) was 25 fold and the “Halo Response” value (dopamine D2 receptor) was 2.2 fold. For the same molecule, the “Forskolin (FSK) Uninduced” value (dopamine D2 receptor) was 283 RLU, the “Isoproterenol-5 minutes Induced” value (HEK293 cells) was 91567 RLU and the “Forskolin (FSK) Induced” value (HEK293 cells) was 29500 RLU. The “Isoproterenol-15 minutes Induced” value (HEK293 cells) was 244700 RLU, the “Isoproterenol-5 minutes Resp” value (HEK293 cells) was 85 fold and the “Forskolin (FSK) Resp” value (HEK293 cells) was 57 fold. The “Isoproterenol-15 minutes Resp” value (HEK293 cells) was 61 fold, the “Isoproterenol-5 minutes Uninduced” value (HEK293 cells) was 1073 RLU and the “Forskolin (FSK) Uninduced” value (HEK293 cells) was 4040 RLU. The “Isoproterenol-15 minutes Uninduced” value (HEK293 cells) was 4040 RLU.

B2: 16B3: 7A1 biosensor with S440N in Luc2.0; SEQ ID NO:72, 73 (protein)
chain: MPGAVGKVVPFFEAKVVDLDTGKTLGVNQRGELCVRGPMIMSGYVNNPEATNALIDKDGWLHSGDIAYWDEDEHFFIVDRLKNLIKYKGYQVAPAELESILLQHPNIFDAGVAGLPDDDAGELPAAVVVLEHGKTMTEKEIVDYVASQVTTAKKLRGGVVFVDEVPKGLTGKLDARKIREILIKAKKGSNWDSGCSREGMYESFIESLPFLKSLEFSARLKVVDVIGTKVYNDGEQIIAQGDSADSFFIIESGEVKITMKRKGKSEVEENGAVEIARCSRGQYFGELALVTNKPRAASAHAIGTVKCLAMDVQAFERLLGPCMEIMKRNIATYEEQLVALFGTNMDIVAKNIKKGPAPFYPLEDGTAGEQLHKAMKRYALVPGTIAFTDAHIEVDITYAEYFEMSVRLAEAMKRYGLNTNHRIVVCSENSLQFFMPVLGALFIGVAVAPANDIYNERELLNSMGISQPTVVFVSKKGLQKILNVQKKLPIIQKIIIMDSKTDYQGFQSMYTFVTSHLPPGFNEYDFVPESFDRDKTIALIMNSSGSTGLPKGVALPHRTACVRFSHARDPIFGNQIIPDTAILSVVPFHHGFGMFTTLGYLICGFRVVLMYRFEEELFLRSLQDYKIQSALLVPTLFSFFAKSTLIDKYDLSNLHEIASGGAPLSKEVGEAVAKRFHLPGIRQGYGLTETTSAILITPEGV
B2 was tested, and the “Dopamine Induced” value (dopamine D2 receptor) was 3050 RLU, the “Forskolin (FSK) Induced” value (dopamine D2 receptor) was 6400 RLU and the “Halo Induced” value (dopamine D2 receptor) was 6188 RLU. For the same molecule, the “Dopamine Response” value (dopamine D2 receptor) was 0.48 fold, the “Forskolin (FSK) Response” value (dopamine D2 receptor) was 17 fold and the “Halo Response” value (dopamine D2 receptor) was 2.0 fold. The “Forskolin (FSK) Uninduced” value (dopamine D2 receptor) was 370 RLU, the “Isoproterenol-5 minutes Induced” value (HEK293 cells) was 72003 RLU and the “Forskolin (FSK) Induced” value (HEK293 cells) was 257605 RLU. For the same molecule, the “Isoproterenol-15 minutes Induced” value (HEK293 cells) was 248415 RLU, the “Isoproterenol-5 minutes Resp” value (HEK293 cells) was 35 fold and the “Forskolin (FSK) Resp” value (HEK293 cells) was 39 fold. For the same molecule, the “Isoproterenol-15 minutes Resp” value (HEK293 cells) was 38 fold, the “Isoproterenol-5 minutes Uninduced” value (HEK293 cells) was 2063 RLU and the “Forskolin (FSK) Uninduced” value (HEK293 cells) was 6555 RLU. For the same molecule, the “Isoproterenol-15 minutes Uninduced” value (HEK293 cells) was 6555 RLU.

B3: 9G4: 7A1 biosensor with E382K in RIIβb; SEQ ID NO:37, 38 (protein)
chain: MPGAVGKVVPFFEAKVVDLDTGKTLGVNQRGELCVRGPMIMSGYVNNPEATNALIDKDGWLHSGDIAYWDEDEHFFIVDRLKSLIKYKGYQVAPAELESILLQHPNIFDAGVAGLPDDDAGELPAAVVVLEHGKTMTEKEIVDYVASQVTTAKKLRGGVVFVDEVPKGLTGKLDARKIREILIKAKKGSNWDSGCSREGMYESFIESLPFLKSLEFSARLKVVDVIGTKVYNDGEQIIAQGDSADSFFIIESGEVKITMKRKGKSEVEENGAVEIARCSRGQYFGELALVTNKPRAASAHAIGTVKCLAMDVQAFKRLLGPCMEIMKRNIATYEEQLVALFGTNMDIVAKNIKKGPAPFYPLEDGTAGEQLHKAMKRYALVPGTIAFTDAHIEVDITYAEYFEMSVRLAEAMKRYGLNTNHRIVVCSENSLQFFMPVLGALFIGVAVAPANDIYNERELLNSMGISQPTVVFVSKKGLQKILNVQKKLPIIQKIIIMDSKTDYQGFQSMYTFVTSHLPPGFNEYDFVPESFDRDKTIALIMNSSGSTGLPKGVALPHRTACVRFSHARDPIFGNQIIPDTAILSVVPFHHGFGMFTTLGYLICGFRVVLMYRFEEELFLRSLQDYKIQSALLVPTLFSFFAKSTLIDKYDLSNLHEIASGGAPLSKEVGEAVAKRFHLPGIRQGYGLTETTSAILITPEGV
In the case of B3, the “Dopamine Induced” value (dopamine D2 receptor) is reported as 1735 RLU, the “Forskolin (FSK) Induced” value (dopamine D2 receptor) is reported as 4133 RLU and the “Halo Induced” value (dopamine D2 receptor) is reported as 4370 RLU. The “Dopamine Response” value (dopamine D2 receptor) was 0.42 fold, the “Forskolin (FSK) Response” value (dopamine D2 receptor) was 14 fold and the “Halo Response” value (dopamine D2 receptor) was 2.5 fold. The “Forskolin (FSK) Uninduced” value (dopamine D2 receptor) was 293 RLU, the “Isoproterenol-5 minutes Induced” value (HEK293 cells) was 27930 RLU and the “Forskolin (FSK) Induced” value (HEK293 cells) was 263020 RLU. The “Isoproterenol-15 minutes Induced” value (HEK293 cells) was 264500 RLU, the “Isoproterenol-5 minutes Resp” value (HEK293 cells) was 50 fold and the “Forskolin (FSK) Resp” value (HEK293 cells) was 46 fold. For the same molecule, the “Isoproterenol-15 minutes Resp” value (HEK293 cells) was 46 fold, the “Isoproterenol-5 minutes Uninduced” value (HEK293 cells) was 553 RLU and the “Forskolin (FSK) Uninduced” value (HEK293 cells) was 5760 RLU. The “Isoproterenol-15 minutes Uninduced” value (HEK293 cells) was 5760 RLU.

B4: 1B3: 7A1 biosensor with A338E in RIIβb; SEQ ID NO:33, 34 (protein)
chain: MPGAVGKVVPFFEAKVVDLDTGKTLGVNQRGELCVRGPMIMSGYVNNPEATNALIDKDGWLHSGDIAYWDEDEHFFIVDRLKSLIKYKGYQVAPAELESILLQHPNIFDAGVAGLPDDDAGELPAAVVVLEHGKTMTEKEIVDYVASQVTTAKKLRGGVVFVDEVPKGLTGKLDARKIREILIKAKKGSNWDSGCSREGMYESFIESLPFLKSLEFSARLKVVDVIGTKVYNDGEQIIAQGDSADSFFIIESGEVKITMKRKGKSEVEENGEVEIARCSRGQYFGELALVTNKPRAASAHAIGTVKCLAMDVQAFERLLGPCMEIMKRNIATYEEQLVALFGTNMDIVAKNIKKGPAPFYPLEDGTAGEQLHKAMKRYALVPGTIAFTDAHIEVDITYAEYFEMSVRLAEAMKRYGLNTNHRIVVCSENSLQFFMPVLGALFIGVAVAPANDIYNERELLNSMGISQPTVVFVSKKGLQKILNVQKKLPIIQKIIIMDSKTDYQGFQSMYTFVTSHLPPGFNEYDFVPESFDRDKTIALIMNSSGSTGLPKGVALPHRTACVRFSHARDPIFGNQIIPDTAILSVVPFHHGFGMFTTLGYLICGFRVVLMYRFEEELFLRSLQDYKIQSALLVPTLFSFFAKSTLIDKYDLSNLHEIASGGAPLSKEVGEAVAKRFHLPGIRQGYGLTETTSAILITPEGV
With B4 the “Dopamine Induced” value (dopamine D2 receptor) was 1898 RLU, the “Forskolin (FSK) Induced” value (dopamine D2 receptor) was 8410 RLU and the “Halo Induced” value (dopamine D2 receptor) was 5228 RLU. For the same molecule, the “Dopamine Response” value (dopamine D2 receptor) was 0.23 fold, the “Forskolin (FSK) Response” value (dopamine D2 receptor) was 18 fold and the “Halo Response” value (dopamine D2 receptor) was 2.8 fold. The “Forskolin (FSK) Uninduced” value (dopamine D2 receptor) was 460 RLU, the “Isoproterenol-5 minutes Induced” value (HEK293 cells) was 59767 RLU and the “Forskolin (FSK) Induced” value (HEK293 cells) was 305500 RLU. The “Isoproterenol-15 minutes Induced” value (HEK293 cells) was 344375 RLU, the “Isoproterenol-5 minutes Resp” value (HEK293 cells) was 36 fold and the “Forskolin (FSK) Resp” value (HEK293 cells) was 47 fold. For the same molecule, the “Isoproterenol-15 minutes Resp” value (HEK293 cells) was 53 fold, the “Isoproterenol-5 minutes Uninduced” value (HEK293 cells) was 1673 RLU and the “Forskolin (FSK) Uninduced” value (HEK293 cells) was 6460 RLU. For the same molecule, the “Isoproterenol-15 minutes Uninduced” value (HEK293 cells) was 6460 RLU.
